# B1: 152-1D5 (antibody, IgG1, V domains shown)
# VH: QVQLQQPGAEVVQPGTSVKLSCKASGYNFTNYWINWVKLRPGQGLEWIGDIYPVSGTTNYNEKFKRKATLTVDTSSSTGNMQLSSLASEDSALYYCASGTGRFAYWGQGTLVTVSA
# VL: DIVLTQSPASLAVSLGQRATISCRASQSVSTSSYSYMHWYQQKPGQPPKLLIKFASNLESGVPARFSGSGSGTDFTLNIHPVEEEDTATYYCQHSWEIPYTFGGGTKLEIK
# notes: tested as hybridoma supernatant; also called anti-CD84 mouse monoclonal antibody 152-1D5
# B2: GYCD84.1-97 (antibody, IgG2a, V domains shown)
# VH: QVQLQQPGAELVKPGTSVKLSCKASGYNFTSYWINWVKLRPGQGLEWIGDIYLGSGSTNYNEKFKSKATLTVDTSSSSAYMQLSSLVSEDSALYYCATSGGYLGYWGQGTTLTVSS
# VL: B1 VL
# notes: tested as hybridoma supernatant
# B3: GYCD84.5.171 (antibody, IgG1, V domains shown)
# VH: EVQLVESGGGLVQPKGSLKLACAASGFTFNIYAMNWVRQAPGKGLEWVARIRSKSNNYARFYADSVKDRFTISRDDSQSMLYLQMNNLKTEDTAMYYCVRPLRSYFSMDYWGQGTSVTVSS
# VL: SIVMTQSPKSMSMSVGERVTLSCKASENVDTYVSWYQQKPEQSPKLLIYGASNRYTGVPDRFTGSGSATDFTLTISSVKAEDLADYHCGQTYSYPWTFGGGTKLEIK
# notes: as for B2
# Biological target: T1, human CD84 on cells (human, UniProt Q9UIB8 22-345)
# T1 construct: the cells were 300.19 cells stably transfected with CD84 full-length DNA, or Raji, Ramos, MOLM-13 cells, lymphocytes and monocytes with their own CD84; also called LY9B; SLAMF5
# T1 sequence: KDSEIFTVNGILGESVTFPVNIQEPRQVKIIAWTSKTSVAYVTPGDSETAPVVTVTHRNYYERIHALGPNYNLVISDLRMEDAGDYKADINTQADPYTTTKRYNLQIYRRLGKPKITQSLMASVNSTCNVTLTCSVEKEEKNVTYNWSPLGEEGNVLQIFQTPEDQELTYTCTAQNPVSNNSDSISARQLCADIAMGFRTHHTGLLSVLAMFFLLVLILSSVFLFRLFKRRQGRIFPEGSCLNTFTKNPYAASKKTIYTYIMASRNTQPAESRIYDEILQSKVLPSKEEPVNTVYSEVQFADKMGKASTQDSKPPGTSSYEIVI
# Experiment: flow cytometry, hybridoma supernatant, 300.19 cells transfected with CD84
row,Binder,300.19-CD84 binding [%]
1,B1,92.5
2,B2,97.7
3,B3,93.2
